Columns and labels:
[1] = biological target: HLp from Leptospira perolatii (Leptospira perolatii); assay: crystal structure; HLp-DNA_1: HLp co-crystallized with the 30-bp-GC40 DNA fragment, 2.10 Å; dimer in the asymmetric unit, tetramer by crystallographic symmetry
[2] = biological target: HLp from Leptospira perolatii (Leptospira perolatii); assay: crystal structure; DNA-free HLp, 1.30 Å, molecular replacement; dimer in the asymmetric unit, tetramer by crystallographic symmetry
[3] = biological target: HLp from Leptospira perolatii (Leptospira perolatii); assay: crystal structure; HLp-DNA_2: HLp co-crystallized with the 30-bp-GC40 DNA fragment, 1.90 Å; monomer in the asymmetric unit, tetramer by crystallographic symmetry
[4] = biological target: HLp from Leptospira perolatii (Leptospira perolatii); assay: SEC-MALS; HLp alone; Superdex 75 Increase 10/300 GL, 25 mM Tris, 50 mM NaCl, 50 mM KCl, pH 7.5; samples incubated at 37 °C for 10 min; oligomer in solution
[5] = biological target: HLp from Leptospira perolatii (Leptospira perolatii); assay: SEC-MALS; HLp incubated with the 30-bp-GC40 DNA fragment at a protein-to-DNA molar ratio of 2:1, 37 °C for 10 min; Superdex 75 Increase 10/300 GL, 25 mM Tris, 50 mM NaCl, 50 mM KCl, pH 7.5
HLp [6] = biological target: T1, HLp (Leptospira perolatii, UniProt A0A2M9ZN55 1-63); assay: MST; 20 mM Tris pH 8.0, 150 mM NaCl; EMSA: 25 mM Tris pH 8.0, 50 mM NaCl, 50 mM KCl, 37 C 10 min; MST: 20 mM Tris pH 8.0, 150 mM NaCl, measured at 25 C (HLp 10 nM DNA, HMfB 20 nM DNA); settings: protein: recombinant; tags: N-terminal His6, cleaved with TEV protease; chain copies: 4; label: 5'-Cy5 on strand 1; blunt
T1 sequence: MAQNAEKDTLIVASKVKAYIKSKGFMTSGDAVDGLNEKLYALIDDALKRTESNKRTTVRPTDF

HMfB = HMfB (Methanothermus fervidus, UniProt P19267 1-69); assay: MST; EMSA: 25 mM Tris pH 8.0, 50 mM NaCl, 50 mM KCl, 37 C 10 min; MST: 20 mM Tris pH 8.0, 150 mM NaCl, measured at 25 C (HLp 10 nM DNA, HMfB 20 nM DNA); settings: protein: recombinant; chain copies: 4; label: 5'-Cy5 on strand 1; blunt
HLp [7] = biological target: T1, HLp; assay: SEC-MALS; complex 69.2 +/- 5.7 kDa: one tetramer with two duplexes; EMSA: 25 mM Tris pH 8.0, 50 mM NaCl, 50 mM KCl, 37 C 10 min; MST: 20 mM Tris pH 8.0, 150 mM NaCl, measured at 25 C (HLp 10 nM DNA, HMfB 20 nM DNA); settings: protein: recombinant; tags: N-terminal His6, cleaved with TEV protease; chain copies: 4; blunt

Chain of HMfB (P19267 whole entry): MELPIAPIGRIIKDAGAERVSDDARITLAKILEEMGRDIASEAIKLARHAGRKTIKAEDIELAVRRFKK

## HLp from Leptospira perolatii (natural protein)
[1]
  stoichiometry N: 4
[2]
  stoichiometry N: 4
[3]
  stoichiometry N: 4
[4]
  stoichiometry N: 4
[5]
  stoichiometry N: 4

B1: 80-bp DNA [Cy5] (dsDNA)
DNA 1: CCGTACTGTCGTCTGCGGCCTTTGATTATCAATTAAAGCGTTCTACGGCGTTTTTGATCGCTCAACGTGCGGAGCTAGAT
DNA 2: ATCTAGCTCCGCACGTTGAGCGATCAAAAACGCCGTAGAACGCTTTAATTGATAATCAAAGGCCGCAGACGACAGTACGG
HLp [6]
  Kd: 3180 ± 1060 nM
HMfB
  Kd: 580 ± 130 nM

B2: 80-bp-GC40 [Cy5] (dsDNA)
DNA 1: TTTAAAGCCGTTTAAAGCCGTTTAAAGCCGTTTAAAGCCGTTTAAAGCCGTTTAAAGCCGTTTAAAGCCGTTTAAAGCCG
DNA 2: CGGCTTTAAACGGCTTTAAACGGCTTTAAACGGCTTTAAACGGCTTTAAACGGCTTTAAACGGCTTTAAACGGCTTTAAA
HLp [6]
  Kd: 1240 ± 140 nM
HMfB
  Kd: 310 ± 80 nM

B3: 30-bp-GC40 (dsDNA)
DNA 1: TTTAAAGCCGTTTAAAGCCGTTTAAAGCCG
DNA 2: CGGCTTTAAACGGCTTTAAACGGCTTTAAA
HLp [7]
  binding result: binds

— publication PMC12701072, “DNA Wrapping by a tetrameric bacterial histone”
